Experimental findings from publication PMC10027671 are described below.

The target of assay [1] is Adnectin1-tFhuA. As to the kind of experiment: single-channel electrical recording (nanopore, resistive pulse); single Adnectin1-tFhuA sensor in a planar lipid bilayer, 20 nM EGFR cis, in the presence of 5% (v/v) fetal bovine serum; +20 mV; filtered at 500 Hz.
In assay [2] the target is Adnectin1-tFhuA. Kind of assay: single-channel electrical recording (nanopore, resistive pulse); single Adnectin1-tFhuA sensor in a planar lipid bilayer, EGFR added to the cis side; +20 mV; 300 mM KCl, 10 mM Tris-HCl, pH 8.0, no TCEP; 24 ± 1 °C; two-exponential capture durations (short- and long-lived).

As to “ectodomain of epidermal growth factor receptor (EGFR) (from UniProt P00533 25-645) (domain or fragment)”, in the assay with Adnectin1-tFhuA [1], the tau off-1 at 20 nM EGFR with 5% FBS (Fig. 5k) is 0.036 s, the tau off-2 (mean duration of long-lived blockades) with 5% FBS was determined as 0.93 s, the tau off-2 at 20 nM EGFR with 5% FBS (Fig. 5k) came to 0.81 s and the tau on (released duration) at 20 nM EGFR with 5% FBS (Fig. 5j) was found to be 0.607 s. Also, the tau on-2 with 5% FBS with Adnectin1-tFhuA [1] came to 1.7 s. In the assay with Adnectin1-tFhuA [2], the tau off-1 at 20 nM EGFR, without FBS (Fig. 5i) is 0.044 s; the tau off-2 at 20 nM EGFR, without FBS (Fig. 5i) was 0.982 s; the tau on (released duration) at 10 nM EGFR came out at 0.78 s; the tau on (released duration) at 20 nM EGFR was 0.42 s. Further, in the assay with Adnectin1-tFhuA [2], the tau on (released duration) at 20 nM EGFR, without FBS (Fig. 5h) worked out at 0.4 s and the tau on (released duration) at 40 nM EGFR was determined as 0.25 s.
